We go through five molecules from article PMC8902620, “Oligomerization of DNA replication regulatory protein RADX is essential to maintain replication fork stability” (The Journal of Biological Chemistry, 2022).

Series [1] concerns the target T1, full-length RADX, wild type, tagged with mCherry-FLAG or with GFP-HA (human, UniProt Q6NSI4 1-855).
T1 construct: RADX (cxorf57), human, full length; Two differently tagged copies of the same protein, written as one molecule; The GFP-HA copy is the one captured on GFP beads in the tests with purified proteins; The mCherry-FLAG copy is the one fished out there, and is the bait of the FLAG co-IP from lysate; also called mCherry-FLAG-RADX; m-Cherry-FLAG-RADX; source: HEK293T, transfected, in lysate; HEK293T, …
Nature of the series: co-IP; purified mCherry-FLAG proteins mixed with purified GFP-HA-RADX and captured on GFP-trap magnetic agarose beads, 1 h at 4 °C; 50 mM Tris pH 7.5, 250 mM NaCl, 10% glycerol, 0.05% NP-40; immunoblot. Conditions: both partners purified. (In western blotting, separated proteins are transferred to a membrane and probed.)

Series [2] deals with the molecule itself. The series is described as follows: SEC; purified MBP-RADX on Superdex 200 Increase 10/300 GL; peak fractions pooled and reapplied; 50 mM Tris pH 7.5, 300 mM NaCl, 10% glycerol, 1 mM DTT; size by molecular weight standards. Background: SEC sorts molecules by how far they enter the pores of the column.

B1: mCherry-FLAG-RADX N-terminal fragment (2–675) (domain or fragment, human, UniProt Q6NSI4 2-675, looked up)
chain: SGESGQPEAGPSHAGLDWPNPERNRAGVPGGVIRRAGSQGPRSWIQKVLEQIMDSPRQCVTPSEVVPVTVLAVQRYLLEDEPRDTVPKPPLYCYDVTISDGVYQEKCYLDPSLNSLVYQNILKVGIQMRISRVSCLYNEKRIGQGILCIDNVHCGETSDSISLETPFRNRAHQEKPERPLRGGKSHYLALWNNEDPYGDIWLTDKQPEEHNFSDTKIISLSHLEMTWTNRRNFPALLVRILHKSKLRYYGKPDKKMIEPYQTFLEVADSSGTVSVIMWNALCPEWYKSLRVGLVLLLQDYSVKKSYPFRIQPVPVDPQIKLISTMEICLNLRDPPTNIIIIPEKQVKPEWRLPKLNHRFTTRSELDDMPENCICDVIGLLVFVGRVQRSKKKENREDFWSYRWIHIADGTSEQPFIVELFSTSQPEIFENIYPMAYFVCTQLKVVRNDNQVPKLLYLTTTNESGVFITGHRGQPYTYDAKVKNFIQWIRTKSDSGEQKNMVIGGYYPYPPVPETFSKYSSSIKVESLLTAISEVRKEIEDLQYREQKRIAIQGIITAIKYIPHSSATESASASETLRNANRPSTSQAARVEIQERNGKRHQDDEPVNSQYFQTTSTNLSLSNKIRILQGPHANPVAVPQPGASVQTKGIKPGMPSIFNRRANINANLQGKARKT
notes: also called pTM59; source: HEK293T, purified (anti-FLAG M2 beads, 3x FLAG peptide, Superdex 200)
For B1, the binding result in series [1] is listed as “binds”.

B2: mCherry-FLAG-RADX C-terminal fragment (675–855) (domain or fragment, human, UniProt Q6NSI4 675-855, looked up)
chain: TISDRWESQLWREKKFGLIDHLHYSRVYPESIPRKFMFEHRKFLSDQYNSQPAKYVPPEGRPPKLDDFKSARSLGHFEVTILGLNHEIAIDVAFLPMYCPEDIRTSQIDTLLTSMNYSCAYPQDTTGNDRLPGPRAVAGDIIKAATELDRVHIVGILDICNLGNNKVEVYLHKIYSPENTS
notes: also called pTM67; source: HEK293T, purified (anti-FLAG M2 beads, 3x FLAG peptide, Superdex 200)
As to B2, the binding result in series [1] was “binds”.

B3: mCherry-FLAG-RADX domain 5 (744–855) (domain or fragment, human, UniProt Q6NSI4 744-855, looked up)
chain: SARSLGHFEVTILGLNHEIAIDVAFLPMYCPEDIRTSQIDTLLTSMNYSCAYPQDTTGNDRLPGPRAVAGDIIKAATELDRVHIVGILDICNLGNNKVEVYLHKIYSPENTS
notes: also called pTM44; source: HEK293T, purified (anti-FLAG M2 beads, 3x FLAG peptide, Superdex 200)
Consider B3, for which, in series [1], the binding result was “binds”.

B4: MBP-RADX (maltose-binding protein-tagged RADX) (natural protein, human, UniProt Q6NSI4 1-855, looked up)
chain: MSGESGQPEAGPSHAGLDWPNPERNRAGVPGGVIRRAGSQGPRSWIQKVLEQIMDSPRQCVTPSEVVPVTVLAVQRYLLEDEPRDTVPKPPLYCYDVTISDGVYQEKCYLDPSLNSLVYQNILKVGIQMRISRVSCLYNEKRIGQGILCIDNVHCGETSDSISLETPFRNRAHQEKPERPLRGGKSHYLALWNNEDPYGDIWLTDKQPEEHNFSDTKIISLSHLEMTWTNRRNFPALLVRILHKSKLRYYGKPDKKMIEPYQTFLEVADSSGTVSVIMWNALCPEWYKSLRVGLVLLLQDYSVKKSYPFRIQPVPVDPQIKLISTMEICLNLRDPPTNIIIIPEKQVKPEWRLPKLNHRFTTRSELDDMPENCICDVIGLLVFVGRVQRSKKKENREDFWSYRWIHIADGTSEQPFIVELFSTSQPEIFENIYPMAYFVCTQLKVVRNDNQVPKLLYLTTTNESGVFITGHRGQPYTYDAKVKNFIQWIRTKSDSGEQKNMVIGGYYPYPPVPETFSKYSSSIKVESLLTAISEVRKEIEDLQYREQKRIAIQGIITAIKYIPHSSATESASASETLRNANRPSTSQAARVEIQERNGKRHQDDEPVNSQYFQTTSTNLSLSNKIRILQGPHANPVAVPQPGASVQTKGIKPGMPSIFNRRANINANLQGKARKTISDRWESQLWREKKFGLIDHLHYSRVYPESIPRKFMFEHRKFLSDQYNSQPAKYVPPEGRPPKLDDFKSARSLGHFEVTILGLNHEIAIDVAFLPMYCPEDIRTSQIDTLLTSMNYSCAYPQDTTGNDRLPGPRAVAGDIIKAATELDRVHIVGILDICNLGNNKVEVYLHKIYSPENTS
notes: RADX (cxorf57), human; also called MBP-tagged RADX; cxorf57; source: insect cells, purified
The stoichiometry N is the number of molecules, sites or subunits per partner or assembly. With B4, the “stoichiometry N” value in series [2] was approximately 2.

B5: mCherry-FLAG-RADX Y849A (natural protein, human, UniProt Q6NSI4 1-855, looked up)
chain: MSGESGQPEAGPSHAGLDWPNPERNRAGVPGGVIRRAGSQGPRSWIQKVLEQIMDSPRQCVTPSEVVPVTVLAVQRYLLEDEPRDTVPKPPLYCYDVTISDGVYQEKCYLDPSLNSLVYQNILKVGIQMRISRVSCLYNEKRIGQGILCIDNVHCGETSDSISLETPFRNRAHQEKPERPLRGGKSHYLALWNNEDPYGDIWLTDKQPEEHNFSDTKIISLSHLEMTWTNRRNFPALLVRILHKSKLRYYGKPDKKMIEPYQTFLEVADSSGTVSVIMWNALCPEWYKSLRVGLVLLLQDYSVKKSYPFRIQPVPVDPQIKLISTMEICLNLRDPPTNIIIIPEKQVKPEWRLPKLNHRFTTRSELDDMPENCICDVIGLLVFVGRVQRSKKKENREDFWSYRWIHIADGTSEQPFIVELFSTSQPEIFENIYPMAYFVCTQLKVVRNDNQVPKLLYLTTTNESGVFITGHRGQPYTYDAKVKNFIQWIRTKSDSGEQKNMVIGGYYPYPPVPETFSKYSSSIKVESLLTAISEVRKEIEDLQYREQKRIAIQGIITAIKYIPHSSATESASASETLRNANRPSTSQAARVEIQERNGKRHQDDEPVNSQYFQTTSTNLSLSNKIRILQGPHANPVAVPQPGASVQTKGIKPGMPSIFNRRANINANLQGKARKTISDRWESQLWREKKFGLIDHLHYSRVYPESIPRKFMFEHRKFLSDQYNSQPAKYVPPEGRPPKLDDFKSARSLGHFEVTILGLNHEIAIDVAFLPMYCPEDIRTSQIDTLLTSMNYSCAYPQDTTGNDRLPGPRAVAGDIIKAATELDRVHIVGILDICNLGNNKVEVYLHKIASPENTS
notes: RADX, human, full length with one point mutation; also called pTM158; source: HEK293T, purified (anti-FLAG M2 beads, 3x FLAG peptide, Superdex 200)
For B5, the binding result in series [1] was “binds”.
